From patent US20130217145A1 (published 2013)

Experiments:
Assay in all cases: FCS competition against 2 nM Alexa488-PIVKAII (13-27) premixed with 10 nM mAb 3C10
[1] = biological target: T1, Gla domain Factor VII sequence 13 peptide
T1 construct: Homologous series peptide; also called PIVKAII Gla domain (13-27) analog, Factor VII
T1 peptide: LERECKEEQCSFEEA
Description: (§1) FCS measurements were performed on each sample after overnight incubation.

[2] = biological target: T2, Gla domain Factor X sequence 12 peptide
T2 construct: Homologous series peptide; also called PIVKAII Gla domain (13-27) analog, Factor X
T2 peptide: LERECMEETCSYEEA
Description: as §1

[3] = biological target: T3, Gla domain Protein S sequence 15 peptide
T3 construct: Homologous series peptide; also called PIVKAII Gla domain (13-27) analog, Protein S
T3 peptide: LERECIEELCNKEEA
Description: as §1

[4] = biological target: T4, Gla domain Protein Z sequence 16 peptide
T4 construct: Homologous series peptide; also called PIVKAII Gla domain (13-27) analog, Protein Z
T4 peptide: LEKECYEEICVYEEA
Description: as §1

[5] = biological target: T5, Gla domain Factor IX sequence 11 peptide
T5 construct: Homologous series peptide; also called PIVKAII Gla domain (13-27) analog, Factor IX
T5 peptide: LERECMEEKCSFEEA
Description: as §1

[6] = biological target: T6, Gla domain Protein C sequence 14 peptide
T6 construct: Homologous series peptide; also called PIVKAII Gla domain (13-27) analog, Protein C
T6 peptide: LERECIEEICDFEEA
Description: as §1

Measured: binding result

B1: Anti-PIVKA-II monoclonal antibody 3C10 (antibody, V domains shown)
VH: EVQLVESGGDLVKPGGSLKLSCAASGFTFSSYGMSWVRQTPDKRLEWVATISRGGSSTYYPDSVKGRFTISRDNAKNNLYLQMSSLKSEDTAMYYCASLNYGNFFDYWGQGTTLTVSS
VL: DVVMTQTPLSLPVSLGDQASISCRSSQSLVHSNGNTYLHWYLQKPGQSPKLLIYKVSNRFSGVPDRFSGSGSGTDFTLKISRVEAEDLGVYFCSQNRHVPPTFGGGTKLEIKR
notes: Mouse hybridoma antibody from a GANP transgenic C57BL/6 mouse; For the Kd measurement the antibody carried Black Hole Quencher (I.R. 2.3); also called mAb 3C10; clone 3C10
no binding: [1] | [2] | [3] | [4] | [5] | [6]
